Entries after “also recorded” stand apart in the source; their conditions may differ.

Broadly, the EC50 (read off the curve) is the concentration needed to bring the measured effect to its halfway point. Usually Kd stands for a measure of binding affinity in units of concentration.

Series [1] can be described thus: Secondary structure contribution calculated from CD-spectra (CDNN). Type of series: physicochemical. Conditions: calculated from CD-spectra, CDNN. How it is done: Fluorescence and circular dichroism spectra of A1 and of RCAM A1 were measured to compare the basic spectroscopic properties of the two protein variants (FIG. 13). The fluorescence spectrum of native A1 has a relatively low intensity with λmax of ˜345 nm. In presence of 2 M GdnHCl the fluorescence intensity increases as the interior of the protein becomes solvent accessible and a red shift of the spectrum to ˜351 nm occurs. […] Nevertheless, RCAM A1 is still retains significant secondary structure content in solution; the distribution of which is summarized in Table 1. In the near UV, the CD of disulfide-intact A1 show a well-defined spectral banding pattern between 260 and 300 nm indicating significant tertiary structure content that is absent in RCAM A1.
(§1) Urea and GdnHCl induced unfolding of A1 and of RCAM A1 at 25° Celsius was monitored via CD at 222 nm on an Aviv Biomedical Model 420C circular dichroism spectrometer. A 1 mm quartz cuvette and protein concentrations of 5 or 10 μM were used. Samples were equilibrated in their urea or GdnHCl containing buffer at 25° Celsius overnight. CD-signal was averaged for 5 to 10 min using an integration time of 1 s. CD-spectra were measured at 20° Celsius using 0.1 or 1 mm quartz cells with a step width of 1 nm between 190 and 260 nm with an integration time of 20 s and a bandwidth of 1 nm. CD-spectra in the near UV range (260-360 nm) were recorded using a 5 cm quartz cell with a 120 s integration time. Transition curves and protein spectra were corrected for the CD Signal of the corresponding buffer.

A short description of series [2]: Irreversible thermal denaturation by CD, intrinsic fluorescence and ANS fluorescence (Example 2). Type of series: physicochemical. How it is done:
The unfolding of disulfide-intact A1 and RCAM A1 was also monitored via CD at 222 nm, intrinsic protein fluorescence at 280 nm/359 nm and ANS fluorescence at 350 nm/495 nm as a function of temperature.
CD thermalscans were recorded between 10 and 95° Celsius at 222 nm with a protein concentration of 1 μM in a 1 cm quartz cell under moderate stirring. Prior to each measurement protein samples were equilibrated at 10° Celsius for 10-15 min in order to obtain a stable baseline. The scanrate for all Thermalscans was 2° Celsius/min. The integration time for each data point was 20 s, the bandwidth 1 nm. All measured CD data were converted into mean molar ellipticities per amino acid residue.
Thermalscans monitoring protein fluorescence were recorded at an emission wavelength of 359 nm after excitation at 280 nm using a protein concentration of 2 μM in a 1 cm quartz cell under moderate stirring. ANS-Thermalscans were recorded at 495 nm after Excitation at 350 nm using 1 μM protein and 100 μM ANS. Prior to any performed thermalscan samples were equilibrated for 10-15 min. The scanrate was 2° Celsius/min. At each temperature between 10 or 20° Celsius and 95° Celsius relative fluorescence intensity was collected for 4 s and averaged.

The next series is described as follows: Solubility (observation). It is filed as physicochemical.
A short description of series [3]: GdnHCl- and urea-induced unfolding at 25° C. by circular dichroism (Example 2). Type of series: physicochemical. Conditions: GdnHCl, CD. How it is done:
The thermodynamic stability of A1 and of RCAM A1 was determined from GdnHCl and urea induced unfolding measured via CD and FL at 25° Celsius (FIG. 14). […] Complete unfolding of A1 and of RCAM A1 occurs in GdnHCl but not in urea. However, in presence of urea, a small expansion of RCAM A1 compared to A1 in its intermediate state is observed.
as §1
On the technique in general: Circular dichroism is widely used to follow secondary structure.

A further series concerns the target T1, platelet GPIbα (Homo sapiens, UniProt P07359).
T1 construct: endogenous in cells; host or cells: platelets in citrated whole blood of normal healthy volunteer donors
As to the kind of experiment: Platelet adhesion to surface captured disulfide-intact A1 and RCAM A1 under shear flow (Example 2). It is filed as cell-based. How it is done: The interaction of disulfide-intact A1 and of RCAM A1 with platelets was studied by immobilizing the proteins via the 6×His-Tag on Cellix biochips in which the internal channel surface was coated with a Cu2+ chelating chemistry. A 5 μM concentration of protein was immobilized in the biochip and citrated whole blood was perfused at a shear rate of 800 s−1 (FIG. 11B). This perfusion was followed by TBS buffer and after red blood cells cleared the channel, the shear was decremented to 100 s−1 or incremented to 9000 s−1 every two minutes at logarithmic intervals. Surface bound platelets were allowed to equilibrate at a given shear rate for 50 s and a 60 s video at 24 frames per second was recorded and analyzed as described in the methods. The internal channel surface lacking immobilized A1 domain was completely inert to platelets.
At each shear rate, platelet mean pause times and mean translocation velocities were calculated from the X-Y trajectories of moving platelets as described in the methods. Approximately 1000 platelet trajectories were analyzed at each shear rate (FIGS. 11B to 11D). The mean pause times were also calculated from the pause time survival fraction obtained from the cumulative integral of the pause time distribution (FIG. 11B) (Thomas:2006). The survival fraction exponentially decreases with faster decay rates as shear increases. Fitting the survival fraction with a bi-exponential decay function results in the apparent rate constants and amplitudes as a function of shear rate (FIG. 11C).
The determination and analysis of platelet pause times and instantaneous translocation velocities over surface captured A1 and RCAM A1 was performed as previously described (Tischer:2013). Here, the inventor used the Cellix Mims Evo syringe pump controlled by VenaFluxAssay (www.cellixltd.com). Vena8™ CGS biochips were custom designed with 800 μm width by 80 μm height microchannels bonded to glass slides with a Cu^2+ chelated PEG surface serviced by Microsurfaces Inc. (www.proteinslides.com/histag.html) to which the A1 and RCAM A1 in TBS were captured by the 6×His-Tag at a total concentration of 5 μM. Citrated whole blood was obtained from the informed consent of healthy volunteer donors with approval from the Mayo Clinic Institutional Review Board and 100 μL was perfused over the surface captured A1 domains at […]. The shear was increased or decreased in a stepwise manner to measure the dynamics of platelet adhesion at high and low shear. After allowing the flow chamber to equilibrate for 50 s at each shear rate, 1 min movies were recorded at 24 frames per second in phase contrast at 200× magnification with 2×2 pixel binning on a Zeiss AxioCam Mrm camera (6.45 μm/px) attached to a Zeiss Axio Observer.D1 inverted microscope. Tracking analysis was performed using MediaCybernetics ImagePro® Premier (www.mediacy.com/index.aspx?page=IP\_Premier) The distance travelled in the direction of flow was calculated from the coordinate data for each platelet as a function of time using √{square root over ((xt−x0)^2)}, where x0 is the coordinates of a platelet on the first frame of the movie and xt is the coordinate on subsequent frames of the movie. These trajectories were differentiated into instantaneous velocities using a Savitzky-Golay algorithm (Savitzky:1964) with a five data point window size and a second order polynomial implemented into a Mathematica (www.wolfram.com/mathematica) notebook written in our lab. Trajectories were retained for statistical analysis if the platelet was present for ≧1 s and travelled a total distance greater than 1 Distance travelled in pixels (px) was converted to (μm) using 6.45 μm/px*2/200=0.0645 μm/px. Pause times were determined by the amount of time (sec) a platelets velocity was 0±4 px/s≅0±0.23 μm/s, within the noise. Data are reported as mean velocities and pause times attained by individual platelets averaged over all platelets analyzed. […]

Series [4] is described as follows: Acrylamide quenching of tryptophan fluorescence (Stern-Volmer). It is filed as physicochemical. Conditions: buffer, 20° Celsius. How it is done:
This was also confirmed via acrylamide induced tryotophan fluorescence quenching performed with an excitation wavelength of 295 nm.
Initially a quenching determination was performed with disulfide-intact A1 at 20° Celsius and at 1° Celsius in order to distinguish between static and collisional quenching. […] Clear evidence for collisional quenching could be obtained for the A1-domain since the Stern-Volmer constant decreased from 2.6±0.03 to 2.2±0.03 M−1, FIG. 16A, ruling out a static quenching mechanism.
Acrylamide quenching of tryptophan was performed using an excitation wavelength of 295 nm. After the addition of a certain amount of buffered acrylamide solution the protein solution was equilibrated for ˜5 min and then a fluorescence spectrum between 320 and 400 nm was recorded. Stern-Volmer constants were determined from the fluorescence intensity at 359 nm using the Stern-Volmer equation as described by Lakowicz (Lakowicz:2006)
where KD is the Stern-Volmer quenching constant and KD-1 is the concentration of acrylamide at which F0/F=2 and 50% of the fluorescence intensity is quenched.

Series [5] concerns the target T2, Recombinant human vWF A1-1261 (amino acids D1261-P1471), N-terminal truncated variant (human, UniProt P04275 1261-1471).
T2 construct: Lacks the linker residues Q1238-E1260; also called truncated A1
The experiment in a line: thermal unfolding by Trp fluorescence, 0.02-300 µM peptide; value without peptide. An excerpt:
(§2) The only way to examine such a stabilization using spectroscopy was the measurement of thermal unfolding via fluorescence. Since the N-terminal peptide also contains a single tyrosine residue, the excitation wavelength was changed to λ=295 nm in order to measure tryptophan fluorescence and the effect of the peptide on the unfolding of the A1-domain was observed indirectly. […] Thermal scans were also done in the presence of a peptide with the same amino acid composition, but a scrambled sequence. The inset of FIG. 7A compares the raw fluorescence thermal scans in the presence of 300 μM scrambled and N-terminal peptides. Unfolding in the presence of excess scrambled peptide was equivalent to unfolding in the absence of either peptide. […] Fitting the enthalpy data to a simple single site binding model yields a dissociation constant of ≈46±6 μM.

Series [6] addresses T3, Recombinant human vWF A1-1238 (amino acids Q1238-P1471) (human, UniProt P04275 1238-1471).
T3 construct: captured on Cu2+ chelate surfaces by the His tag in the flow chamber assays; also called WT A1; disulfide-intact A1; not shown: N-terminal 6xHis-Tag from the Qiagen pQE-9 vector
The experiment in a line: unfolding enthalpy from fluorescence thermal scans of A1-1238 against total peptide concentration.

For series [7], the target named is T2, Recombinant human vWF A1-1261 (amino …). As to the kind of experiment: thermal unfolding by Trp fluorescence at 2 °C/min; value at saturating peptide.
Description: as §2

Series [8] has the same target. The experiment in a line: thermal unfolding by Trp fluorescence, 0.02-300 µM peptide; value at saturating peptide.
Description: as §2

Series [9] has the same target. As to the kind of experiment: thermal unfolding by Trp fluorescence at 2 °C/min; value without peptide.
Description: as §2

Series [10] has the same target. As to the kind of experiment: unfolding enthalpy from fluorescence thermal scans of 2 µM A1-1261 against total peptide concentration.
Description: as §2

The target is the same in series [11]. As to the kind of experiment: thermal unfolding enthalpy of 2 µM A1-1261 (Trp fluorescence) against peptide concentration, single site binding model.
Description: as §2

Turning to “RCAM A1: vWF A1 domain (Q1238-P1471) with disulfide bond reduced and carboxyamidated; molten globule model of intermediate state”, in series [1], the “% α-Helix” value is 25% and the “% β-sheet” value is 22%. Also, the “Cooperative thermal unfolding transition” value in series [2] (CD, intrinsic fluorescence and ANS fluorescence) is on record as “absent”. In addition, the “Temperature at which protein aggregation begins in thermal scan” value in [2] (absence of urea) is on record as around 40 ° Celsius. Moreover, the Solubility result in the series “Solubility (observation)” was “low solubility”. Also, in [3], the “cm, I ⇄ D” value is recorded as 3.83 ± 0.03 M; the “m-value, I ⇄ D” value is reported as −7.49 ± 0.49 kJ/mol/M; the “ΔG^0, I ⇄ D” value worked out at 6.857 ± 0.452 kcal/mol. The “Total number of platelets interacting, relative to disulfide-intact A1” value with platelet GPIbα is on record as “less, by approximately half”. The “Velocity of a platelet translocating on the domain” value in the series with platelet GPIbα (1025 s−1) was “statistically zero”. The “Platelet translocation on surface-immobilized domain” value with platelet GPIbα (all applied shear rates, up to 9000 s−1) is reported as “did not translocate across the surface at all applied shear rates; also recorded: firm adhesion with no platelet translocation”. In addition, in [4], the Stern-Volmer constant was found to be 5.6 ± 0.4 M⁻¹.

B1: N-terminal peptide (QEPGGLVVPPTDAPVSPTTLYVE) corresponding to vWF residues Q1238-E1260 (peptide)
peptide: H-QEPGGLVVPPTDAPVSPTTLYVE-OH
notes: Synthetic peptide; also called free N-terminal peptide; N-terminal linker peptide
On to B1, for which the “unfolding enthalpy of A1-1261 without and with saturating peptide” value was determined as 47.1 kcal/mol in series [5] and 57.8 kcal/mol in series [8]. Also, in [6], the binding result is recorded as “no binding (tested: 100 µM)”. For the same molecule, the “apparent TM of A1-1261 without and with saturating peptide” value came out at 55.5 ° Celsius in series [7] and 53 ° Celsius in series [9]. Moreover, the concentration giving a half-maximal response (EC50 (read off the curve)) in [10] is around 30 µM. The Kd in series [11] was around 46 µM.

The values above are taken from patent US20150160214A1, “Quantitation of Cellular Adhesion Dynamics Across Immobilized Receptors Under Rheological Shear Flow” (Mayo Foundation for Medical Education and Research, priority 2013, published 2015).
